According to patent US12202907B2, “Nucleic acids encoding and methods of producing proteins comprising antibody chains” (Innate Pharma, priority 2018, dated 2025):
Where a chain is given by its changes, count along the chain named.

T1: human Ramos lymphoma cells (CD39) (Homo sapiens, UniProt P49961)
T1 construct: cells that endogenously express CD39 at their surface; host or cells: Ramos
T1 sequence (P49961 1-510): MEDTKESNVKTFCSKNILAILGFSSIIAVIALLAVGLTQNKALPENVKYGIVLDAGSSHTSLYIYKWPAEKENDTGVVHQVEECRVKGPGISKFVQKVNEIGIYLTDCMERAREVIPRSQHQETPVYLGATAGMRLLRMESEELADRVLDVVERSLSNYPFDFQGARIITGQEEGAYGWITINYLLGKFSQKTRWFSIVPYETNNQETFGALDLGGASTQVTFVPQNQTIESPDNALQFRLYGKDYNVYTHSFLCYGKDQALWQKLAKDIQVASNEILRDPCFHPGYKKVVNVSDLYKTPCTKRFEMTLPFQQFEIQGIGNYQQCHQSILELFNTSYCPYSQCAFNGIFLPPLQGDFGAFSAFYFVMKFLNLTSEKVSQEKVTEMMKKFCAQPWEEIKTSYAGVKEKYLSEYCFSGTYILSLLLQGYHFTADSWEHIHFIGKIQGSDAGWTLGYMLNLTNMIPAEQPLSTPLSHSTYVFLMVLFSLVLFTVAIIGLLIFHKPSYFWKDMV

T2: soluble recombinant human CD39 protein (Homo sapiens, UniProt P49961)
T2 construct: made in house; host or cells: CHO cells
T2 sequence (P49961 with tags, fused parts or gaps): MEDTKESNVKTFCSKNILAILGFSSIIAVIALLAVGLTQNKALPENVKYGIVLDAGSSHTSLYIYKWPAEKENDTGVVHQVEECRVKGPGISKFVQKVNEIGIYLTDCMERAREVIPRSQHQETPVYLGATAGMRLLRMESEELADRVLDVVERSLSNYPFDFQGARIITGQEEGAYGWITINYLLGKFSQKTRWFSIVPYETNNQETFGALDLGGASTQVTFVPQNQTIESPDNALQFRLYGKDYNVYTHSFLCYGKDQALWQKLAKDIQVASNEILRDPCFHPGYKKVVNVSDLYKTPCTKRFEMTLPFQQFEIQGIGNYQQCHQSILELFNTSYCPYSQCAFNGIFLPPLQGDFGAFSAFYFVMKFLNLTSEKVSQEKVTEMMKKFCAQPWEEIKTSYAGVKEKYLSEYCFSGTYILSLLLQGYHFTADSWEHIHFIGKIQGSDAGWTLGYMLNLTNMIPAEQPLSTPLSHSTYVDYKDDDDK

T3: CD39 expressed by Ramos human lymphoma cells (Homo sapiens, UniProt P49961)
T3 construct: cells that endogenously express CD39 at their surface; host or cells: Ramos
T3 sequence (P49961 1-510): T1 sequence (P49961 1-510)

T4: membrane-bound CD39 in Mino tumor cells (Homo sapiens, UniProt P49961)
T4 construct: endogenous in cells; host or cells: Mino
T4 sequence (P49961 1-510): T1 sequence (P49961 1-510)

B1: mAb8: humanized I-394 variant, VH H2 (SEQ ID NO: 29), VL L1 (SEQ ID NO: 36) (antibody, V domains shown)
VH: QVQLVQSGAEVKKPGASVKVSCKASGYTFTDYNMHWVRQAPGQRLEWMGYIVPLNGGSTFNQKFKGRATITVDTSASTAYMELSSLRSEDTAVYYCARGGTRFAYWGQGTLVTVSS
VL: DIVMTQSPDSLAVSLGERATINCRASESVDNFGVSFMYWFQQKPGQPPKLLIYGASNQGSGVPDRFSGSGSGTDFTLTISSLQAEDVAVYYCQQTKEVPYTFGGGTKVEIK
B2: mAb9: humanized I-394 variant, VH H2 (SEQ ID NO: 29), VL L1* (SEQ ID NO: 37) (antibody, V domains shown)
VH: B1 VH
VL: B1 VL with R24K
B3: mAb20: humanized I-394 variant, VH H4 (SEQ ID NO: 31), VL L1 (SEQ ID NO: 36); heavy chain SEQ ID NO: 38, light chain SEQ ID NO: 39 (antibody)
heavy: QVQLVQSGAEVKKPGASVKVSCKASGYTFTDYNMHWVRQAPGQRLEWIGYIVPLNGGSTFNQKFKGRATITVDTSARTAYMELSSLRSEDTAVYYCARGGTRFAYWGQGTLVTVSSASTKGPSVFPLAPSSKSTSGGTAALGCLVKDYFPEPVTVSWNSGALTSGVHTFPAVLQSSGLYSLSSVVTVPSSSLGTQTYICNVNHKPSNTKVDKRVEPKSCDKTHTCPPCPAPEAEGAPSVFLFPPKPKDTLMISRTPEVTCVVVDVSHEDPEVKFNWYVDGVEVHNAKTKPREEQYNSTYRVVSVLTVLHQDWLNGKEYKCKVSNKALPSSIEKTISKAKGQPREPQVYTLPPSREEMTKNQVSLTCLVKGFYPSDIAVEWESNGQPENNYKTTPPVLDSDGSFFLYSKLTVDKSRWQQGNVFSCSVMHEALHNHYTQKSLSLSPGK
light: DIVMTQSPDSLAVSLGERATINCRASESVDNFGVSFMYWFQQKPGQPPKLLIYGASNQGSGVPDRFSGSGSGTDFTLTISSLQAEDVAVYYCQQTKEVPYTFGGGTKVEIKRTVAAPSVFIFPPSDEQLKSGTASVVCLLNNFYPREAKVQWKVDNALQSGNSQESVTEQDSKDSTYSLSSTLTLSKADYEKHKVYACEVTHQGLSSPVTKSFNRGEC
B4: mAb14: humanized I-394 variant, VH H3 (SEQ ID NO: 30), VL L1 (SEQ ID NO: 36) (antibody, V domains shown)
VH: B1 VH with M48I
VL: B1 VL
B5: mAb15: humanized I-394 variant, VH H3 (SEQ ID NO: 30), VL L1* (SEQ ID NO: 37) (antibody, V domains shown)
VH: B1 VH with M48I
VL: B1 VL with R24K
B6: mAb23: humanized I-394 variant, VH H4* (SEQ ID NO: 34), VL L1 (SEQ ID NO: 36) (antibody, V domains shown)
VH: B1 VH with M48I, N61S, K65Q, S77R
VL: B1 VL
B7: mAb24: humanized I-394 variant, VH H4* (SEQ ID NO: 34), VL L1* (SEQ ID NO: 37) (antibody, V domains shown)
VH: B1 VH with M48I, N61S, K65Q, S77R
VL: B1 VL with R24K

What was measured:
[1] = Stability in reference formulation (storage, freeze thaw); type: physicochemical; details: about 7 mg/mL, pH 6.0 histidine/sucrose/NaCl/PS80, +5° C. and +40° C., up to 1 month
Method: (§1) Antibodies mAb1-24 and prior art anti-CD39 antibody BY40, all produced as human IgG1 isotypes with L234A/L235E/G237A/A330S/P331S substitutions were tested for stability in the following reference formulation at a concentration of approximatively 7 mg/mL: pH 6.0; histidine buffer (10 mM); sucrose (200 mM); NaCl (50 mM); Polysorbate 80 (PS80) (0.2 g/L). The stability of the formulations was monitored in two storage conditions (at +5° C.±3° C. and at +40±3° C. For each study, 3 time points were performed: T0, T15D (15 days) and T1M (1 month). A freeze thaw (F/T) and a thermal shift stability assay (TSSA) were conducted for the format comparison. To perform F/T cycles, the samples were frozen at least 2 hours at −20° C. and thawed at least 1 hour at room temperature, the F/T cycle is repeated three times and samples are tested 24 h after the last Freeze/Thaw cycle. At each time point, the following tests were performed: • Particulate Matter (MFI) • Visual Inspection (Appearance) • Impurities (SE-HPLC) • Turbidity (400 nm) • Protein Concentration (280 nm) (performed with Nanodrop, Thermo Fisher Scientific Inc.)

[2] = target: T1, human Ramos lymphoma cells (CD39); experiment: Antibody titration on Ramos cells by flow cytometry; type: binding; details: comparison
Method: Antibody I-394 was tested in two repeated experiments for binding to CHO cells expressing human CD39, CHO cells expressing cynomolgus (Macaca fascicularis) CD39, CHO cells expressing murine CD39, and human Ramos lymphoma cells (ATCC™, reference CRL-1596). Cells were incubated with various concentration of unlabeled anti-CD39 antibody from 30 μg/ml to 5×10^−4 μg/ml, for 30 minutes at 4° C. After washes, cells were incubated with Goat anti-mouse H+L labeled secondary antibody for 30 min at 4° C.

[3] = Aggregation temperature (thermal shift stability assay); type: physicochemical; details: human IgG1 with L234A/L235E/G237A/A330S/P331S
Method: as §1

[4] = test system: soluble CD39 protein released in cell culture supernatant from CHO cells expressing human CD39; experiment: Inhibition of ATPase activity of soluble CD39 released in CHO-huCD39 culture supernatant; type: biochemical; details: humanized variants
Method: (§2) The inhibition by antibodies of the enzymatic activity of soluble CD39 protein produced was evaluated using Cell Titer GIo™ (Promega, reference G7571) that allows assessment of ATP hydrolysis through use of a reagent that generates a luminescent signal proportional to the amount of ATP present. In this way, inhibition of the soluble-CD39-meidated ATP hydrolysis can be assessed. Briefly, dose ranges of anti-CD39 antibodies from 100 μg/ml to […] were incubated with 400 ng/ml of soluble recombinant human CD39 protein having the amino acid sequence described in the Methods section (SEQ ID NO: 44), for 1 h at 37° C. 20 μM ATP was added to the plates for 30 additional minutes at 37° C. before addition of CTG (Cell Titer Glo) reagent. Emitted light was quantified using an Enspire™ luminometer after a short incubation period of 5 min in the dark. Anti-CD39 antibody efficacy was determined by comparing emitted light in presence of antibody with ATP alone (maximal light emission) and ATP together with soluble CD39 protein (minimal light emission).
Antibodies were tested for capacity to inhibit the ATPase activity of soluble CD39 protein using the assays used for inhibition of the enzymatic activity of soluble CD39 as described above (Methods). […]

[5] = target: T2, soluble recombinant human CD39 protein; experiment: Inhibition of the enzymatic activity of soluble CD39 (Cell Titer Glo, cell-free); type: biochemical; details: humanized variants
Method: as §2

[6] = target: T3, CD39 expressed by Ramos human lymphoma cells; experiment: Inhibition of the enzymatic activity of cellular CD39 in Ramos cells; type: cell-based; details: Ramos cells
Method: (§3) The inhibition of the CD39 enzymatic activity in CD39-expressing cells by antibodies was evaluated using Cell Titer GIo™ (Promega, reference G7571) that allows assessment of ATP hydrolysis through use of a reagent that generates a luminescent signal proportional to the amount of ATP present. The assay was thus designed to permit assessment of the inhibition of ATP hydrolyzed by CD39 in the cell culture supernatant. Briefly, 5×10^4 Ramos human lymphoma cells, 5×10^3 human CD39−, cynomolgus CD39—and mouse CD39− expressing CHO cells, were incubated 1 hour at 37° C. with anti-CD39 antibodies from 30 μg/ml to 5×10^−4 μg/ml. Cells were then incubated with 20 μM ATP for 1 additional hour at 37° C. Plates were centrifuged for 2 min at 400 g and 50 μl cell supernatant are transferred in a luminescence microplate (white wells). 50 μl CellTiter-Glo™ Reagent (CTG) was added to the supernatant and emitted light was quantified after a 5 min incubation in the dark using a Enspire™ luminometer. Anti-CD39 antibody efficacy was determined by comparing emitted light in presence of antibody with ATP alone (maximal light emission) and ATP together with cells (minimal light emission).

[7] = target: T4, membrane-bound CD39 in Mino tumor cells; experiment: Inhibition of the enzymatic activity of cellular CD39 in Mino cells; type: cell-based
Method: as §3
Antibodies were tested for potency in inhibition of ATPase activity in cell lines that express membrane-bound CD39. […]

Molecule	physicochemical stability [1]	binding to Ramos cells relative to I-394 [2]	Aggregation temperature (TAgg) [3] [°C]	potency for inhibition of soluble CD39 relative to parental I-394 [5]	potency at blocking CD39 enzymatic activity relative to other antibodies [6]	other results
B1	good physicochemical stability	best binding	~70			
B2	good physicochemical stability	best binding	~70			
B3	good physicochemical stability	best binding	~70	comparable to the parental I-394 antibody	more potent at blocking CD39 enzymatic activity compared to all other antibodies	potency relative to parental I-394, soluble CD39 in CHO-huCD39 supernatant [4]: comparable to the parental I-394 antibody; potency at blocking CD39 enzymatic activity relative to other antibodies [7]: more potent at blocking CD39 enzymatic activity compared to all other antibodies
B4				comparable to the parental I-394 antibody		
B5				comparable to the parental I-394 antibody		
B6					slightly lower potency than mAb20 and mAb21	
B7					slightly lower potency than mAb20 and mAb21	
